Columns and labels:
[1] = molecular target: human NPR-C (natriuretic peptide receptor C, clearance receptor), overexpressed on HEK293 cells (human) (UniProt P17342); test: cell-based or functional assay
[2] = molecular target: NPR-C on ATDC5 cells (mouse chondrogenic cell line) (mouse) (UniProt P70180); test: displacement of 125I-Ostn[83-133] from ATDC5 cells
Chain of NPR-C on ATDC5 cells (mouse chondrogenic cell line) (mouse) (P70180 41-536): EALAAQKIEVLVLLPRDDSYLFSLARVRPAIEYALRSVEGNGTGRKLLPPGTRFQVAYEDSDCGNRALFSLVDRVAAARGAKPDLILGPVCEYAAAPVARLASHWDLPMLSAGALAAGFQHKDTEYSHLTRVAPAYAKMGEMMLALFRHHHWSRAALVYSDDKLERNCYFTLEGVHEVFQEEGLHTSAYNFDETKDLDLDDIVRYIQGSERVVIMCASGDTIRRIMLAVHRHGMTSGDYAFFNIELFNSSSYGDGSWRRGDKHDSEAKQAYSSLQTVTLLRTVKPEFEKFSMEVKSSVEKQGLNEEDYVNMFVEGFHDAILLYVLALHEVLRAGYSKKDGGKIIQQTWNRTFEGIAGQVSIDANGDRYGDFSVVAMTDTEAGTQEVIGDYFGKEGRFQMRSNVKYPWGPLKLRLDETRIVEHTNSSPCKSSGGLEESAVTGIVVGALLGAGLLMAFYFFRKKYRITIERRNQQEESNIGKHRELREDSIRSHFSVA

Chain of human NPR-C (natriuretic peptide receptor C, clearance receptor), overexpressed on HEK293 cells (human) (P17342 27-541): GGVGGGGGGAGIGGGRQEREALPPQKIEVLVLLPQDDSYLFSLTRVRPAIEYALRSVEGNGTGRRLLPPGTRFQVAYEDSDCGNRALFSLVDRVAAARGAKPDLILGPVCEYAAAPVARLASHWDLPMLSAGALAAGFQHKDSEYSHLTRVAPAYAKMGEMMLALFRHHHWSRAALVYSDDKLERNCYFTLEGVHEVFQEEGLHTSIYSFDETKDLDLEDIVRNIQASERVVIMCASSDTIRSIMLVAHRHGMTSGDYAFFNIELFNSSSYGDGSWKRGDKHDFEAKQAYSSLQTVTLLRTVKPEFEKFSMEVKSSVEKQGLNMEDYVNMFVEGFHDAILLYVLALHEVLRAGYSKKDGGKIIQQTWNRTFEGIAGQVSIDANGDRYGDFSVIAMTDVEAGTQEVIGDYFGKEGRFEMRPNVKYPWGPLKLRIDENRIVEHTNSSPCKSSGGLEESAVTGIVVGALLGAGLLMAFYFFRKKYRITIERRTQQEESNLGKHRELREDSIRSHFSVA

| Substance | cGMP levels of NPR-C-expressing HEK293 cells with 0.1 nM ANP and 10 nM rhOstn[27-133] [1] | IC50 [2] | maximal inhibition at 1 µM, difference from that of cold Ostn[83-133] [2] |
| --- | --- | --- | --- |
| N-terminal 6 histidine-tagged recombinant human Ostn rhOstn[27-133] (from UniProt G7NYP9 27-133) (ligand) | 8 fold | – | – |
| rat C-ANF (peptide) | – | 6.7 nM | 15 % less |

— US20070049521A1
